From article PMC12484072 (Frontiers in Microbiology, 2025) come the findings set out here.

The assay deals with T1, SaNsrP-ECD, soluble extracellular domain of SaNsrP (S. agalactiae).
T1 construct: also called SaNsrFP ECD
Nature of the assay: other fluorescence titration. The settings on record: both partners purified.

“And” between values parts separate entries of the source, which are not always exact repeats. Equal entries are not always repeated. Bridge positions count the residues as written; N and C are the ends. Square brackets hold non-standard residues; d marks the D form. Ends that are not written are not given here. dOrn = NCCC[C@@H](N)C(=O)O

B1: bacitracin (peptide)
chain: ICL[dE]IK[dOrn]I[dF]H[dD]N
modifications: lactam 6-C; also: N-terminal thiazoline: Ile1-Cys2 condensed
As for B1, the Kd is 259 µM and 304 µM.
